Experiment: label from the status in PepcDB records
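Further: failed if final PepcDB status was selected cloned or expressed and not failed if soluble or beyond.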

| Sequence | protein production |
| --- | --- |
| MKLSIVIVNYRVPYFLEQCLLSVRKSAQGIDTEVWVVDNNSGDGSVEYLQSRFPEVHFVANEENVGFSRANNQAIRLSKGQYVLLLNPDTLIGESTLRTVVDFMDSKPNAGGLGVKMLNGHGRFLPESKRGFPSPWVSFCKLSGLNRLFPHSSRFNRYHLSYLSRDEVHKVEVLSGAFMLMRREALDKVGLLDERFFMYGEDIDLSYRLILGGYDNYYYPTPILHYKGESSSVSDVKYLRSFYGAMGLFFDKYYRNRMNPLLHGLINVVIKARTALALMLRSLRKVPAAEKPAKIFYWHPSEGEAAISAYHDRSHILINTDEVTCDRLLLTMEKLADRKHTFHLTNDTTKRVISP | failed |
| NGYTMQRDNQKTLAVYMFEEINRDVEYLSGRLSEKELKDKYRYYGRGYVRITDKDGQVITYEDGSVQDKTVFLTNEGANKLGWKLEFLIDEKMFEEEILEKQN | not failed |
| MKEKVQSPELRFDGFTDGWEQRKFADFIDVKSGKDYKHLNSGSIPVYGTGGYMLSVDRALSDIDAIGFGRKGTIDKPYLLKAPFWTVDTFFYAVPKQNIDLQFSLSIF | failed |
| MHSLYLGVVKVMAKIILVYANCVNSTAKGDFALAGQIAKDLVREKTSDDIDVVLTSTLDGIARFESLYGKAVDGRVIIEGTSVGLCALELFESVDNEVVAFIEANRCKYAPSDILKRVLSPDSKFLFIGAANQKAIATGDKFTKSWLYISHKGDQPNVYEHFDEDDSLIQSVGLGDDRLGLPSLPKVDELPEMNSTQSQKIPSGEYGFMYLAAVHGIDDVYLMNQYMSLTEMGQYVLVGEYAKQSKEVQMVLHSLQYKGSSVSLTMPQIFFHDSVDNCLMRNMVSKSSGPLVVSTGVMSSIEAMQDGKLTYYQTMSNNTQFVASYLIAVKSICSSDTTLFGSMPKLIIDLSNLLFAEKPLKESQMKEIKSLLGMSSVTSRLGEMNKRIIAKANGTVAGELLSFIGKPKTTQSHKQCISVCMSLRKSGETTSPIFDQALRRAAAWGRLFELKVLIASMSTSDLNKKDKTGNQYTALHWAVMQGHLDCARLLVKSGASVDIQDKSGKSPLHYAIKRGDKETIKLLVQAGASLEIMDDSGAKPCDGSESWVPEYIKSCYEKSGHKSSSLF | failed |
| MERAVVQRARPLARRPLVTLLTAAALAASGLTALTSAARAADADLARNGGFESALDGWTCTAGTTVTSPVHGGTSALKATPAGADNARCSQTVSVKPDSPYTLSGYVRGTYVYLGASGTGTTDVSTWAQSAPDWQQLTTTFRTGPSTTRVTIYTHGWYGTGAYHADDISLTGPGGETQQPPAVPGGLKTGSVTSSAVALSWSPVPGATGYAVYRDGAKVSTVTGTSTTVTGLTPSTAYSFQVTAVNDAGESARSATVTATTAQRPDDGGGSSDLPAHALVGYLHASFANGSGYTRMADVPDSWDVIDLAFGEPTSVTSGDIRFERCPVAECPNVESDAEFKAAIKAKQAAGKKVLISIGGQNGQVQLTSTAARDKFVSSVSAIIDEYGLDGLDIDFEGHSLSLNADDTDFKNPKTPVIVNLVSAVKTLKAKYGDGFVLTMAPETFFVQLGYQYYGTGKWGGQDPRAGAYLPVIHALRDDLTLLHVQDYNSGSIMGLDNQYHSMGGADFHIAMTDMLLTGFPVAGDANNVFPPLRPDQVAIGMPASTQAGNGHVSPAEVTKALNCLTKKTDCGSYATHGTWPDLRGLMTWSINWDRYSNWEFQKNFDAYFG | failed |
| MERKNNQRSDEDEERKEQSEEERVERKEEAPRKRQKQDDVSTGKETLSKKRKIIDNDGDNVPTRSNKQSRVDDADNVDGPPVGDNDDHPTAQRKSKRGTIPSIHTQPPFTAEKKKHPILYPFAKVDASRVEKLAEGKKSRKCK | failed |
| MLFISATNTNAGKTTCARLLAQYCNACGVKTILLKPIETGVNDAINHSSDAHLFLQDNRLLDRSLTLKDISFYRYHKVSAPLIAQQEEDPNAPIDTDNLTQRLHNFTKTYDLVIVEGAGGLCVPITLEENMLDFALKLKAKMLLISHDNLGLINDCLLNDFLLKSHQLDYKIAINLKGNNTAFHSISLPYIELFNTRSNNPIVIFQQSLKVLMSFALK | not failed |
| MEWLNEPPNWSHSDQKIIVTTSPKTDFWRITHYGFIRDSGHFYFDRVSTDFVVDVKIKGNYKDLYDQAGIMIRADEQHWIKTGIEYVDGVQNLSAVVTHNYSDWSFTPLLNPPNIFQVRVERCQEAIHIAYLDEYSRYVPFRMAYFPVALDIQVGIMCASPQGNGYEVIFEDYQLTKKGEKLSLEHHHHHH | failed |
| MLAGHLFAGVGEDVRLFKGITMTYGHNIELGDNAVVHDGVHLDDRGELVVGARASVSNGAHLYTHDHDVVDQTDVTNYRTEIGADARVTQGALVRAGVRVGENALVGSRSVVQGDVPAHHIAVGSPAESVRVKPGWLEHHHHHH | failed |
| MYLLTFKGLIYSAGGTWLNKGNLMYFGSLIFLFLVVFLIFSEQRTEKTSGLEKVSVQEAKEMIEKGDVFVLDVRTPDEFNSSHIKGATLIPLSNAFGSNLSSESLLKAHIDEVPKEKILVYCRTGRRSDTAGRMLVNAGYTQVYNMVGGIIAWTDAGYPVVSSEDTESEGSHN | failed |
| MEGFGMPKLIISGRGGSGKSTLVTLIAHTLKEQKKRVLVVDSDESNIGLSGILGIEPAEKTLMDYLGGKPRVMKKLRSMIRDGETEPELFREKFDLESLSQEFVCWVGSLGLMQIGKIDHAMEGCACPMGAVTRDFLNHVRLEEDQWVLVDTEAGVEHFGRGIVEGADAVVMVVDPSSDAVLLAEKAAKLTHEADKRFGVILNKIDEETEPILTELLTSEGNEIKGVLPYSPAITKMNLKGESLGAYAVKNEVDEIIRELMKCLEHHHHHH | failed |
| MGNFMDDQCLLHASALTYSTLLSIVPFFALAFAVLKGLGVQNTLEPFILDQVAAGSHEIVDRIVTYINNTKVGSLGAVGLVTLVVSTVTLLGNIEETFNSIWGVRETRSLYRRFSDYLSVVVFGPILIFAAISVTTTLESQKAVQWLIGTAYLGDVLVAAFRLVPYVSIWLALVFLYMLIPNTKVRFRSALVGGVIAGTLWQAAQWGYIHFQVGVAKYNAIYGTLAVLPVFMIWLYASWSIVLFGVEVVYAHQHRRTFRHETHIPDLEPAARERLALALLLEVCRTFFRDGAPWNAERLAERLDVPERTARETLGMLVAKGWLAESCGEETLYLPARELEHMRVRELIASLRGHAMPLATGRFDPAVEWLAARMEGAVAAELGEVNFRTLAEGGGVD | failed |
| MSGGPVKTPFLSFIIPAYNEEQRLPSYLERVIGFFAGQSYSFEIVVVDDGSSDGTAALVKALMAQHSCLRLEALDRNRGKGFAVKTGMSAAKGQLRVFADADGATPVEEIRRLLDAREQGADIAIGSRAMRSDECIVQGRVHRKIMGTVFNGLIRALAVRGIHDSQCGFKLFTASAAEDIFPRQRITGFGFDVELLFLARRLGYVVVEVPVNWSDVEGTKVRLVRDSFRMLGEVLRIRFTNLTGGYGDIPGKTLEHHHHHH | failed |
| MSIKKLWVIPKDGYLLLLDYDSDEEEEQAHSEVKRPAFGKHENMPPHVEADEDIRDEQDSMLDKSGENVSFSEEWQRFARSVETPMENWNLLSGEQQVRNASELDLMEVQNPVTHDDGNANPEEVVGDTRKKINNKLCEQKFDMDIQKFNEEQEKSVNNYQKEQQALKLSECSQSPTMEAIEDMHEKSMEGLMNMETNNYDMLFDVDGEETL | failed |
| MMHPVASSNPAFCGPGKPSCLNEDAMRAADQFDIYSSQQSKYSHTVNHKPMVCQRQDPLNETHLQTTSGRSIEIKDELKKKKNLNRSGKRGRPSGTTKSAGYRTSTGRPLGTTKAAGFKTSPGRPLGTTKAAGYKVSPGRPPGSIKALSRLADLGYGCGTAAFPYPMMHGRAVHGVEETSSEVKPPNE | failed |
| MEYFLPLISIVTISYNAVNLIEKTILSVVEQDTADFEYIVIDGGSTDGTVEVIRKYENAISYWVSESDKGIFDAMNKALSVAKGDWVIFMNSGDCFYNNHVLSEIAIYMKDEETELIYGDVNLFSGKRNFIFKQRVSGININLNSVCHQTVFIRRKLHPYFDVRYKLTADHDIIFDFIKRGQYIHANIVIAKVLLGGVSHDVIKTSLEKLLISYRKGTFMDLLLSPLCNIYQVIKYFVKKLLISALPIELFNKMSRMKSKMESNFLEHHHHHH | not failed |
| MSRQQNEEDTNSVLFDARNEYYIGNFMGSINFVLPEQGTAGPELLSYMYLSYLAIDSGRIVASDIKEGNSTPLQALRLVHEAFEQPSRTEELLEKLTDKVAGEEDETNIWHLATAIVYCHDGQFENALKILHGSTNLESMALSVQCLLRLQRVDLAKQLVAKMQEISDDATLTQLAQAWVALAQGTEQMQDAFHIYQEFCEKFKPTPALLNGQAVVHLGLERYEEADSVLRESLLKKHNDYDTLINLMVHAHLTGKPTEAITRNLEQLRQFYPKSDFVTDLDKKSAEFDRLCLQYDVEGGEKLLAV | failed |
| MKTDLIYGVEDRPPFKDALFAALQHLLAIFVAIITPPLIIASALKLDVEKTSFLVSMSLFASGVSTFIQCRRIGPIGAKLLCIQGTSFSFIGPIIATGLVGGLPLIFGSCIAAAPIEMVVSRTFKYLRNIITPLVSGIVVLLIGLSLIKVGIVSCGGGYSAMDDGSFGSWENLSIAALVLLSVLFFNRCKNKYLRMSSIVFGLCLGYGLAFALGKVNMSALNVEMLMSFNIPQPFKYGIDFNISSFIAIGLVYLITAIEATGDVTANSMISGLPIEGDSYLKRVSGGVMADGFNSLLAGIFNSFPNSIFAQNNGIIQLTGVASRYVGYYIAAMLVLLGLFPIVGAIFSLMPDPVLGGATLLMFGTVAAAGIRIVSSQEIGRKETLVLAVSLSLGLGVELMPDVLKQAPEAIRSIFSSGITTGGLTAIVANMVIRVK | not failed |
| MNSLPRPDIGPFADTPEKRWVGVSFGAAAVGYDGVAALQREVGESLLAGIRHLGPPPARMLDLGAGTGHFSGLLVAAFPTAECLALDIAEGMLRFLRSHRPGADGMGLVVGDAEALPLADESVDLIFSNMAFQWCERLDRAISECCRVLRPGGRLAFSTFGEATLAELRMAWRAVDGYTHVNAFATRRSVEQELRAQGFTKIRLDARTLRRGYPSVLALMKELKALGARNLTRNRPRHLLSRHTLERVSEAYGRLPGMASAVTASFEVLTALVEK | failed |
| MRQSTLHTRLSTGPGGSMRSSIEIFNIRTRKMRVVWQTPELFEAPNWSPDGKYLLLNSEGLLYRLSLAGDPSPEKVDTGFATICNNDHGISPDGALYAISDKVEFGKSAIYLLPSTGGTPRLMTKNLPSYWHGWSPDGKSFTYCGIRDQVFDIYSMDIDSGVETRLTHGEGRNDGPDYSPDGRWIYFNSSRTGQMQIWRVRVDGSSVERITDSAYGDWFPHPSPSGDKVVFVSYDADVFDHPRDLDVRVQLMDMDGGNVETLFDLFGGQGTMNSPNWSPDGDEFAYVRYFPVE | not failed |
| MAGAMRKMAVYLGLVEDDGYDGRGFDPDDDFEPELDPEPERDRRRHEPPHQSHQALHPQRDESVRVVQPPMQRDPVPHSASLPAESVRPARIAPVASITQERQSLEKNAPVIMPKVVSEREPYRITTLHPRTYNEARTIGEHFREGTPVIMNLTEMDDTDAKRLVDFAAGLVFGLHGSIERVTQKVFLLSPANVDVTAEDKARIAEGGFFNQSLEHHHHHH | not failed |
| MDEKRLKILEAAMEEFTEKGYQAASTNKICAKAGVSKGLIFHYFGSKEKLYIAAVSYAVDFATNEVSLEEKRWSDFVEMAIWSTKMKLDFNRKYPAIFGLIMQAYGNPPPELKGKLDGFFDKAIERSEAQMNQVLNEMQLKKDVNMDAARKVMEALFQHITEKSTVFLQRHPNATMEDFIPLANDFTEMMRIVEFGICEEKKDSGE | failed |
| SDILLVHGSGYGGWCWDATIRALAAHGARARALDLPGRIFTPGLSLADHAAAILQEIRAPVTLVGHSAGGFSIAAAAEAAAPGLIERLIFLCAYAPRDGASVASMRRAQARQPLRPAIRLAPDRLSYSFDPDLAGEALFHDCPPEVRAAALARMGAEPVGPQEERIRLSARYHALPKHYIRCLEDRAIPPETQEAMTADWPAGSVSTLPAGHSPFLSCPEALAKRLISVAAN | failed |
